This passage reports abundance fitness results from the Human Domainome abundance scans (Beltran et al. 2025).

± gives the uncertainty stated by the source.

B1: Cell division cycle and apoptosis regulator protein 1, residues 625 to 674; numbered along this chain, Q8IX12 (parent)
chain: ISTPTHWSKLDPKTMKVNDLRKELESRALSSKGLKSQLIARLTKQLKVEE

In the data set the parent is B1. As to the kind of experiment: abundance fitness (aPCA) (normalised: wild type 0, dead -1); higher = more abundant; growth selection in yeast, the domain comes from the species named. Conditions: Homo sapiens.
In the case of IWTPTHWSKLDPKTMKVNDLRKELESRALSSKGLKSQLIARLTKQLKVEE [S2W], the abundance fitness was -0.083 ± 0.05.

As to TSTPTHWSKLDPKTMKVNDLRKELESRALSSKGLKSQLIARLTKQLKVEE [I1T], the abundance fitness was -0.145 ± 0.064. Regarding ASTPTHWSKLDPKTMKVNDLRKELESRALSSKGLKSQLIARLTKQLKVEE [I1A], the abundance fitness came out at 0.049 ± 0.29. Under ISTPTHWSALDPKTMKVNDLRKELESRALSSKGLKSQLIARLTKQLKVEE [K9A] stands -0.016 ± 0.036; under ISTPTHWSHLDPKTMKVNDLRKELESRALSSKGLKSQLIARLTKQLKVEE [K9H], -0.091 ± 0.049. As for ISTPTHWSFLDPKTMKVNDLRKELESRALSSKGLKSQLIARLTKQLKVEE [K9F], the abundance fitness is -0.317 ± 0.06. Under ISTPTHWSLLDPKTMKVNDLRKELESRALSSKGLKSQLIARLTKQLKVEE [K9L] stands -0.066 ± 0.031; under ISTPTHWSGLDPKTMKVNDLRKELESRALSSKGLKSQLIARLTKQLKVEE [K9G], -0.154 ± 0.038; under ISTPTHWSKLIPKTMKVNDLRKELESRALSSKGLKSQLIARLTKQLKVEE [D11I], 0.066 ± 0.034. With ISTPTHWSKLWPKTMKVNDLRKELESRALSSKGLKSQLIARLTKQLKVEE [D11W], the abundance fitness is -0.109 ± 0.041. With ISTPTHWSKLDPKTMKVNDLRKELESRALSSKGLKSQLIARLTKQLFVEE [K47F] the figure was -0.489 ± 0.095; with ISTPTHWSKLDPKTMKVNDLRKEIESRALSSKGLKSQLIARLTKQLKVEE [L24I], -0.586 ± 0.083; with ISTPTHWSKLDPKTMKVNDLRKESESRALSSKGLKSQLIARLTKQLKVEE [L24S], -0.806 ± 0.051. Turning to ISTPTHWSKLDPKTMKVNDLRKEQESRALSSKGLKSQLIARLTKQLKVEE [L24Q], the abundance fitness was -0.891 ± 0.071. Under ISTPTHWSKLDPKTMKVNDLRKEFESRALSSKGLKSQLIARLTKQLKVEE [L24F] stands -0.825 ± 0.068. Under ISTPTHWSKLDPKTMKVNDLRKELESRALSSKGLKSQLIARLTKQLKVRE [E49R] stands -0.935 ± 0.046; under ISTPTHWSKLDPKTMKVNDLRKELESRALSSKGLKSQLIARLTKQLKVAE [E49A], -0.867 ± 0.053.

As to ISTPTHWSKLDPKTMKVNDLRKELESRALSSKGLKSQLIARLTKQLKVDE [E49D], the abundance fitness was -0.41 ± 0.048.

Consider ISTPTHWSKLDPKTMKVNDLRKELESRALQSKGLKSQLIARLTKQLKVEE [S30Q], for which the abundance fitness was -0.148 ± 0.045.

Regarding ISTPTHWSKLDPKTMKVNDLRKELESRALKSKGLKSQLIARLTKQLKVEE [S30K], the abundance fitness was found to be 0.037 ± 0.047. With ISTPTHWSKLDPQTMKVNDLRKELESRALSSKGLKSQLIARLTKQLKVEE [K13Q] the figure was -0.13 ± 0.032; with ISTPTHWSKLDPKTMKVNDLRKELESRALSSKGLKSQEIARLTKQLKVEE [L38E], -0.423 ± 0.035; with ISTPTHWSKLDPKTMKVNDLRKELESRALSSKGLKSQFIARLTKQLKVEE [L38F], -0.866 ± 0.085. Turning to ISTPTHWSKLDPKTMKVNDLRKELESRALSSKGLKSQDIARLTKQLKVEE [L38D], the abundance fitness is -0.332 ± 0.045. With ISTPTHWSKLDPKTMKVNDLRKELESRALSSKGLKSQYIARLTKQLKVEE [L38Y], the abundance fitness is -0.832 ± 0.075. As for ISTPTHWSKLDPKTMKVNDLRKELESRALSSKGLKSQLIARLTKQLKAEE [V48A], the abundance fitness is -0.117 ± 0.043. With ISTPTHWSKLDPKTMKVNDLRKELESRALSSKGLKSQLIARLTKQLKEEE [V48E] the figure was -0.023 ± 0.051; with ISTPTHWSKLDPKTMKVNDLRKELESRALSSKGLKEQLIARLTKQLKVEE [S36E], -0.151 ± 0.047. With ISTPTHWSKLDPKTMKVNDLRKELESRALSSKGLKWQLIARLTKQLKVEE [S36W] the figure was -0.114 ± 0.032. With ISTPTHWSKLDPKTMKVNDLRKELESRALSSKGLKYQLIARLTKQLKVEE [S36Y] the figure was -0.115 ± 0.043. For the variant ISTPTHWSKLDPKTMKVNDLRKELESRALSSKGLKSQLIFRLTKQLKVEE [A40F], the abundance fitness was 0.032 ± 0.059. Consider ISTPTHWSKLDPKTMKVNDLRKELESRALSSKGLKSQLIRRLTKQLKVEE [A40R], for which the abundance fitness is 0.019 ± 0.042.

On to ISTPTHWSKLDPKTMKVNDLRKELESRALSSKGLKSQLICRLTKQLKVEE [A40C], for which the abundance fitness was -0.07 ± 0.046. With ISTPTHWSKLDPKTMKVNDLRKELESRALSSKLLKSQLIARLTKQLKVEE [G33L] the figure was -1.04 ± 0.052.

Regarding ISTPTHWSKLDPKTMKVNDLRKELESRALSSKTLKSQLIARLTKQLKVEE [G33T], the abundance fitness was -1.03 ± 0.055. As to ISTPTHWSKGDPKTMKVNDLRKELESRALSSKGLKSQLIARLTKQLKVEE [L10G], the abundance fitness was -0.562 ± 0.041.

As to ISTPTHWSKYDPKTMKVNDLRKELESRALSSKGLKSQLIARLTKQLKVEE [L10Y], the abundance fitness was -0.709 ± 0.052. With ISTPTHWSKSDPKTMKVNDLRKELESRALSSKGLKSQLIARLTKQLKVEE [L10S] the figure was -0.577 ± 0.033; with ISTPTHWSKLDPKTMKVNDLRKELESRALSSKGLKSQLIARLTYQLKVEE [K44Y], -0.229 ± 0.046; with ISTPTHWSKLDPKTMKVNDLRKELESRALSSKGLKSQLIARLTKCLKVEE [Q45C], -0.042 ± 0.056. Under ISTPTHWSKLDPKTMAVNDLRKELESRALSSKGLKSQLIARLTKQLKVEE [K16A] stands -0.227 ± 0.035; under ISTPTHWSKLDPKTMNVNDLRKELESRALSSKGLKSQLIARLTKQLKVEE [K16N], 0.033 ± 0.06; under ISTPTHWSKLDPKTMKVNDLRKELESRAQSSKGLKSQLIARLTKQLKVEE [L29Q], -0.172 ± 0.051. Under ISTPTHWSKLDPKTMKVNDLRKELESRANSSKGLKSQLIARLTKQLKVEE [L29N] stands -0.552 ± 0.083. As to ISTPTHWSKLDPKTMKVNDLRKELESRAGSSKGLKSQLIARLTKQLKVEE [L29G], the abundance fitness was -0.853 ± 0.04. With ISTPTHWSKLDPKTMKVNDLRKELESRAASSKGLKSQLIARLTKQLKVEE [L29A] the figure was -0.899 ± 0.059; with ISTPTHWSKLDPKTMKVNDLRKELESRAKSSKGLKSQLIARLTKQLKVEE [L29K], -0.226 ± 0.056. Under ISTPTHWSKLDPKTMKVNDLRKELESRAISSKGLKSQLIARLTKQLKVEE [L29I] stands 0.045 ± 0.054.

For ISTPTHWSKLDPKTMKVNDLRKELESRALSSKGLKSTLIARLTKQLKVEE [Q37T], the abundance fitness is -0.093 ± 0.032. Under ISTPTHWSKLDPKTMKVNDLRKELESRALSSKGLKSHLIARLTKQLKVEE [Q37H] stands -0.455 ± 0.11; under ISTPTHWSKLDPKTMKVNDLRKELESRALSSKGLKSYLIARLTKQLKVEE [Q37Y], -0.274 ± 0.042. For the variant ISTPTHWSKLDPKTMKVNDLRKELESRALSSKGLKSLLIARLTKQLKVEE [Q37L], the abundance fitness was -0.178 ± 0.03.
